The record followed here is PMC12711028.

Assay [1] addresses Ss-DAF-2B, isoform B of the insulin receptor homolog Ss-DAF-2 of Strongyloides stercoralis (Strongyloides stercoralis).
The target is the same in assay [2]. This is another data set of the same source.

As to bovine insulin (ligand), the Ss-daf-2 transcript level in iL3 treated with bovine insulin, fold change against control (RT-PCR); no significant effect in assay [1] turned out to be 1 fold. This substance also yielded a feeding rate of S. stercoralis iL3 with bovine insulin; endogenous Ss-DAF-2, isoforms not told apart in assay [2] of 38.2%.
On to “human insulin (Hs-INS) (from UniProt P01308 1-110) (ligand)”, for which the Ss-daf-2 transcript level in iL3 treated with human insulin, fold change against control (RT-PCR) in assay [1] stood at 2.6 fold. Also, the feeding rate of S. stercoralis iL3 with human insulin compared with porcine and bovine insulin at equivalent concentrations; endogenous Ss-DAF-2, isoforms not told apart in assay [2] was 72.2%.
As for porcine insulin (ligand), in assay [1], the Ss-daf-2 transcript level in iL3 treated with porcine insulin, fold change against control (RT-PCR); no significant effect amounted to 0.9 fold. This substance returned a feeding rate of S. stercoralis iL3 with porcine insulin; endogenous Ss-DAF-2, isoforms not told apart in assay [2] of 0.7%.
